From the domain aggregation screens of Martell et al. (2025)

Assay: soluble fraction after stress (log2 fold change); higher = more stays soluble; pooled small domains, quantitative proteomics
Settings: stress: 75 degC
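Note: 20 min heating vs room temperature control held 20 min.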

Row | Sequence | soluble fraction (log2)
1 | HMGDSFLDHKKELQSMILSRLDLSREVPDEEIKDIIDELIIAQSKKLFLSLNDRGKLRQELFYSIRK | -1.23
2 | HMGDSVLNDKLNTLAGLDEERFKWVLASLNPNNSYSTHSDKMSALMWLVSYFNDEADLKETVPPLPI | -0.189
3 | HMGDTIFINNNFYVKHIVEFGETIDIISKIYDVSVNKILETNETSTKLYSGQSLFIPININV | -3.47
4 | HMGDTLEIVVIYSNKQKAEEAVNNLKGKFEDLGYNFAIITVDTSKITQLAMESSIQYIEFPKSFYFSD | -4.25
5 | HMGDVATVKLDNNGLLNMRKSDARGADIVARIPNGTVVQVLNRETEWTQVRYDGKEGYVMSSFLQFAE | -0.047
6 | HMGDVPESLVEKAGHSINAKIISAWGMTETGASTMTRPQDDPERAIYSDGVVLPLMDVRVVNDAGLA | -0.167
7 | HMGDWEKALAQFAAHRLANGSTAFLDEMYPIFERILLQAALNKTGGRKIEAAELLGWGRNTLTRKLKELGF | -2.2
8 | HMGDYERVPEYKGKLTSDLTMEDSQKFAFRFIWQNSDEDEGKIIDQDPPAGKSVAKGSEIVLYVSNG | 0.474
9 | HMGEAAIYRINILINNLNVRSGPGTLYPRLRRADFPGEYDIFEEKNGFGRISNTKSEWVSLNTQYVQRLT | -2.8
10 | HMGEAIPVPDLKHKALTDAEHLVHELGLEIQVVDTGYVKSLPADYILGQSLAPGEKVKSGHIIYVTINSP | -1.23
11 | HMGEGTAVGKALKFLAAQGKKFAPELLDMAGSLTGVEALSKLGDAIKGDPELSELDKRILLAELETDAV | -0.171
12 | HMGEIHALIPGLVSRLFVKPGDRVENGQGLLILEAMKMENEIDSPISGVVGKIYIKAGDKVEKGELIMEIN | -1.45
13 | HMGEIVVPDLIGKSLTEATRILSDSTLTVGKVNYQISSTLLPNTVLDQYPAPGNKLNSGNTVDLFITKE | 0.068
14 | HMGEKTLSEKVYDRLKELIMDGELERGTKITETSIAKMFDVSPTPVREAFRKLASDGLIEVASWKGVIVKG | -0.378
15 | HMGELYGTDQYKDGDAQDTNIGKLLEVNIDGKWQVATTGTSRFEFAGVMDDNGHKLIMISVLPEAKTV | 0.0596
16 | HMGEPLSPDARALTNVLRHYRGWAEPGELARKSGLGSRERVLTAAQSLVNAGLADIERGMVRPTAALMEVQ | 0.0619
17 | HMGEPVASSREVAKRFGKEHKHVLAAIRQILVAENSATKFFHETAFEYRGQRFPEYLMNRDGFALLAMGF | -3.15
18 | HMGEPVNSPMPGTILRVEVTQGAAVKEGQLLVVLEAMKMENEILAPKDGTVAQVVVQKGSHVETGSPLIVL | -0.508
19 | HMGEQLALLERARTLLEDETLETEVQKELEMLLEDIEAARAEANATQLEDLFEELADLLFDLE | 0.316
20 | HMGEQYYVLIDNKQNGPHNINAIQKMIDQNIVNRQTLIWKKGMTDWGNIMDDKDLKEMVNKIP | 0.111
21 | HMGERMELTLDNPREAIPVLDAMGFANYQVVDKEHIHIFERLNESALVNMELAKAGIPVKGISITSE | 0.0918
22 | HMGESEWIVKWRGEKRDEERLQESELVRDDPEHRISVVRPRDDVDASAWLNRWRKSRYVQYIQPNHRVTIS | 0.568
23 | HMGESFPYVAYATDSVRLRARPSSSATILTVIRKGDAVLITGADGSYKIVEYEGRKGYVVSAFLSSQET | -2.51
24 | HMGESVQVPSYVGMGFREAARKARARDFGVAVSDSIYVPGKPPGEIIAQDPKAESRVKEGRTIYFTVAK | -0.109
25 | HMGETAFRYALPLDQGEALKRSHVIRQSISPDDALATRVTVLEDVLDQTLRQPVQAGEVLLEDHFTR | -0.0825
26 | HMGETRWTYDDFGNILTEKAAPYSATEFLGKTYTYDTDNRYLKTVTDALGRTTTTLSYDKYGNPLSVMD | 0.115
27 | HMGETWYEILEISSDATTEEIRQAYFEQARQYHPDTNPGELAREWFYQVQEAYETLSDPDRRRQYDESIKG | -0.0285
28 | HMGEVEVPDLVGIEAIQAKTLLFNSDFLIKEFYDYDPTQPIGVVIRQAPEAGTTQTIGDSVTITINRA | -0.334

Row | Sequence | soluble fraction (log2)
29 | HMGEVISRSYPLLKTKAKPAEVSEALQKLIKAPATVTFDEKNEVFHINATRLQHTWAEGYFKGLHGK | -0.14
30 | HMGEVPPGWSVEALAAIERDLAHHVGPVARVLVQRGARLHTTTDDLRSALANAITDDLARRRFMQP | -0.575
31 | HMGFEALRSRHRITAREMEVLQHMLAGRSNAEIGHTLGLSERTVKTHITSIFNKLGVDSRAQLGYMLK | -1.87
32 | HMGFLTKTQRLEILLHLKDEPYYNVEKLKELIKNRYGIVYQSSQSYYDLLKEAGLSWHQTQA | -2.33
33 | HMGFVTVTEVDTTADLKLARVYVSVLGPEEQWAKSFTALESARGFVWNWLRKHLDLRVTPQLAF | -1.08
34 | HMGGASVTDQQIRDFVSAHTDDPMAIYKAAVANGISSARLAQVTGISIADIEAFVRKNNLPSF | -0.0535
35 | HMGGEEINMINLVGLSQSEAENQLAKLKLKIGQVTAEYSDKPSGTVLKQSISANNKVKKGADIDIVVSKG | -0.0126
36 | HMGGELLSLRRIGTLTGISYPTLLRYVARYGEQIPQTGTGRSRRFPPAAVPVFQELRATRGRAPRATA | -0.104
37 | HMGGEPKALLFAGVETREMAEITQRLEAADIPYEIREDGGSIYVARSEVFNARMMLSADGLPS | -0.455
38 | HMGGFNATTLQNIEELRRSLSDADQFGRHEVIETIGGSDSRAGKLLKKMLEAGIIEQVKGHGKGRYRFKRT | 0.0983
39 | HMGGGEYTVAKGDTLWKIAAQTLGSPTRYAEIYNLNKDVIEETARGRGKRDSSNGHWLFPGTALKIPGT | 0.421
40 | HMGGGFLVPSLVGKSLEEARSLSELRGFKLEVGDYVISSEYPAGRVTRQNPANGAKGQEGDVIKVEVSS | -0.00395
41 | HMGGGRELGLDPETGKKISVRLGKFGPFVQLGESGEEDKPVFANLGKNQSIATLSLEEAIALLARPK | 0.187
42 | HMGGGVSSSLAGNVFKVLLPAGSVVEQGQAVIVLEAMKMETEVNAPKSGSVSSVFVNEGDTVEVGDLLFAI | -0.0461
43 | HMGGKWKAIIIYHLKNGPKRFGELRRALISSTETVLSNQLKQLEQDGLVSRQVFGTKPPLKTVYSLTDFG | -3.3
44 | HMGGKWKLRILLALENSAQDALRYGEIKNIVSGITDMMLSQSLRELTADGLIERRQYQEIPPKVEYRLS | -2.31
45 | HMGGKWKPIILYYININSVARYSELKRFIPSINERMLTRQLRELEEDNLIERKVYPIVPPKVEYRLTEYGK | -0.179
46 | HMGGKWSMPIIYILSKGKMRFKELERSVEGINTRMLVKELKNMEANGIVTREVFPTVPPTVEYALT | -0.968
47 | HMGGKYKGVIIGHLIDKTLRYNELQKLISHATPKMLIQQLKELEADGIIQRKLYPVVPPKTEYSLTERG | -0.973
48 | HMGGLAEGTKITLQNTVNVRASMGEDAEKIGTAYAGEKVTVIMSYAEGWTKVTWNDKTGYIKTSLL | -1.5
49 | HMGGLAHPASGEEMEHLFAHLEGELLKSGFLFPPDKAAGMMRNIRAMLTRADFTDQEVRTLRGMIVALSRG | -1.62
50 | HMGGNDALEIAKSNPQVIEVLGEPVTKDGMGSYSVNYKNGHKTSEATIPIEGPNGTATLHVKTSGSDDAL | 0.237
51 | HMGGNKILTWKTDAATTRNQVPINERKEGLEISYKNEERNWVAEKYVGTSFSDDKWGVDYNWNQD | 0.951
52 | HMGGPAGPDFTYTGDDLTRIDYDDGSYKVFTYDAGKLSQIDFTSGGTTTRKTFVYSGDTLIRVDQTI | -0.179
53 | HMGGPEPIPAQIREGDTVYVTKFKQLGLVLKISEDTAEVQIGPLRATVAKTELSKVDATATEHR | -0.0822
54 | HMGGQFVKVEVIAQIFGVTVRRVQQLTQEGVVKTTEIPGEGRRYELVPTIKTYIQYLSDKAY | -4.02
55 | HMGGTFLVRILDPALNIRAQPSLTARINGVIRDKSVYTIVATSFEPKTQITWGKLKSGAGWISIGSKYVKK | -3.4
